Measured values reported in the supplement of paper PMC5998384.

Key:
HeLa Kyoto [1] = experiment: solubility change mitosis vs G1/S (difference of NP-40 vs SDS log2 ratios) (log2 ratio difference); higher = more soluble in mitosis
HeLa Kyoto [2] = experiment: thermal stability score vs G1/S (z-score of summed log2 fold changes over temperatures); higher = more thermally stable than in G1/S
HeLa Kyoto [3] = experiment: melting temperature (median over replicates), in situ; higher = more thermally stable
HeLa Kyoto [4] = experiment: solubility in G1/S (NP-40 vs SDS abundance) (log2 ratio); higher = more soluble; conditions: cell cycle stage: G1/S
[5] = cell cycle stage: early G1 (4.5 h after nocodazole release)
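Throughout, for melting temperature (median over replicates), in situ: HeLa Kyoto cells synchronized by double thymidine or nocodazole block, proteins quantified by TMT10plex mass spectrometry, three independent biological replicates.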
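Throughout, for solubility change mitosis vs G1/S (difference of NP-40 vs SDS log2 ratios): synchronized HeLa Kyoto cells (double thymidine block for G1/S, nocodazole release for mitosis), protein amounts in NP-40 versus SDS lysates quantified by mass spectrometry, three biological replicates.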
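Throughout, for solubility in G1/S (NP-40 vs SDS abundance): HeLa Kyoto cells arrested at G1/S by double thymidine block, proteins quantified by TMT10plex mass spectrometry in mild NP-40 versus SDS extracts, three biological replicates.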
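Throughout, for thermal stability score vs G1/S (z-score of summed log2 fold changes over temperatures): synchronized HeLa Kyoto cells, proteins quantified by TMT10plex mass spectrometry, three biological replicates, mitosis taken 0.5 h after nocodazole release, G1/S directly after double thymidine block.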

Row | Sequence | solubility change mitosis (log2) (HeLa Kyoto [1]) | thermal stability score (HeLa Kyoto [2]; [5]) | thermal stability score (HeLa Kyoto [2]; cell cycle stage: mitosis) | melting temperature (HeLa Kyoto [3]; cell cycle stage: G1/S) [°C] | melting temperature (HeLa Kyoto [3]; cell cycle stage: mitosis) [°C] | solubility in G1/S (log2) (HeLa Kyoto [4])
1 | MFPAAPSPRTPGTGSRRGPLAGLGPGSTPRTASRKGLPLGSAVSSPVLFSPVGRRSSLSSRGTPTRMFPHHSITESVNYDVKTFGSSLPVKVMEALTLAEVDDQLTINIDEGGWACLVCKEKLIIWKIALSPITKLSVCKELQLPPSDFHWSADLVALSYSSPSGEAHSTQAVAVMVATREGSIRYWPSLAGEDTYTEAFVDSGGDKTYSFLTAVQGGSFILSSSGSQLIRLIPESSGKIHQHILPQGQGMLSGIGRKVSSLFGILSPSSDLTLSSVLWDRERSSFYSLTSSNISKWELDDSSEKHAYSWDINRALKENITDAIWGSESNYEAIKEGVNIRYLDLKQNCDGLVILAAAWHSADNPCLIYYSLITIEDNGCQMSDAVTVEVTQYNPPFQSEDLILCQLTVPNFSNQTAYLYNESAVYVCSTGTGKFSLPQEKIVFNAQGDSVLGAGACGGVPIIFSRNSGLVSITSRENVSILAEDLEGSLASSVAGPNSESMIFETTTKNETIAQEDKIKLLKAAFLQYCRKDLGHAQMVVDELFSSHSDLDSDSELDRAVTQISVDLMDDYPASDPRWAESVPEEAPGFSNTSLIILHQLEDKMKAHSFLMDFIHQVGLFGRLGSFPVRGTPMATRLLLCEHAEKLSAAIVLKNHHSRLSDLVNTAILIALNKREYEIPSNLTPADVFFREVSQVDTICECLLEHEEQVLRDAPMDSIEWAEVVINVNNILKDMLQAASHYRQNRNSLYRREESLEKEPEYVPWTATSGPGGIRTVIIRQHEIVLKVAYPQADSNLRNIVTEQLVALIDCFLDGYVSQLKSVDKSSNRERYDNLEMEYLQKRSDLLSPLLSLGQYLWAASLAEKYCDFDILVQMCEQTDNQSRLQRYMTQFADQNFSDFLFRWYLEKGKRGKLLSQPISQHGQLANFLQAHEHLSWLHEINSQELEKAHATLLGLANMETRYFAKKKTLLGLSKLAALASDFSEDMLQEKIEEMAEQERFLLHQETLPEQLLAEKQLNLSAMPVLTAPQLIGLYICEENRRANEYDFKKALDLLEYIDEEEDININDLKLEILCKALQRDNWSSSDGKDDPIEVSKDSIFVKILQKLLKDGIQLSEYLPEVKDLLQADQLGSLKSNPYFEFVLKANYEYYVQGQI [NUP133] | 0.284 | -2.95 | -2.97 | 51.9 | 49.6 | -0.454
2 | MAMARLGSWLGEAQWLALVSLFVAALATVGLYLAQWALARARPQPQRRAVEPGEGPRPGSDALLSWILTLGSWRSQWQAAWVTALNEEAERKGGPPFLSFEEDPRQQALELVVQEVSSVLRSAEEKVVVCHVVGQAIQFLVSETPALGAGCRLYDMRLSPFHLQLEFHMKEKREDLQISWSFISVPEMAVNIQPKALGEDQVAETSAMSDVLKDILKHLAGSASPSVVLITKPTTVKEAQNLQCAASTAQESCPPKPPRAHELKLLVRNIHVLLLSEPGASGHINAVCVVQLNDPVQRFSSTLTKNTPDLMWEEEFTFELNAKSKELHLQISEAGRSSEGLLATATVPLDLFKKQPSGPQSFTLTSGSACGSSVLGSVTAEFSYMEPGELKSWPIPPPVPAAKIEKDRTVMPCGTVVTTVTAVKTKPRVDVGRASPLSSDSPVKTPIKVKVIEKDISVQAIACRSAPVSKTLSSSDTELLVLNGSDPVAEVAIRQLSESSKLKLKSPRKKSTIIISGISKTSLSQDHDAALMQGYTASVDSTHQEDAPSHPERAAASAPPEEAESAQASLAPKPQEDELDSWDLEKEPQAAAWSSQVLLDPDGDELSESSMSVLEPGTAKKHKGGILRKGAKLFFRRRHQQKDPGMSQSHNDLVFLEQPEGSRRKGITLTRILNKKLLSRHRNKNTMNGAPVEPCT [C2CD2] | 0.0576 | 0.427 | 1.24 | 50.9 |  | 0.0136
3 | MATIPDWKLQLLARRRQEEASVRGREKAERERLSQMPAWKRGLLERRRAKLGLSPGEPSPVLGTVEAGPPDPDESAVLLEAIGPVHQNRFIRQERQQQQQQQQRSEELLAERKPGPLEARERRPSPGEMRDQSPKGRESREERLSPRETRERRLGIGGAQELSLRPLEARDWRQSPGEVGDRSSRLSEAWKWRLSPGETPERSLRLAESREQSPRRKEVESRLSPGESAYQKLGLTEAHKWRPDSRESQEQSLVQLEATEWRLRSGEERQDYSEECGRKEEWPVPGVAPKETAELSETLTREAQGNSSAGVEAAEQRPVEDGERGMKPTEGWKWTLNSGKAREWTPRDIEAQTQKPEPPESAEKLLESPGVEAGEGEAEKEEAGAQGRPLRALQNCCSVPSPLPPEDAGTGGLRQQEEEAVELQPPPPAPLSPPPPAPTAPQPPGDPLMSRLFYGVKAGPGVGAPRRSGHTFTVNPRRSVPPATPATPTSPATVDAAVPGAGKKRYPTAEEILVLGGYLRLSRSCLAKGSPERHHKQLKISFSETALETTYQYPSESSVLEELGPEPEVPSAPNPPAAQPDDEEDEEELLLLQPELQGGLRTKALIVDESCRR [PPP1R18] | 0.428 | 0.778 | 0.67 | 52.5 | 52 | -0.53
4 | MCGNNMSTPLPAIVPAARKATAAVIFLHGLGDTGHGWAEAFAGIRSSHIKYICPHAPVRPVTLNMNVAMPSWFDIIGLSPDSQEDESGIKQAAENIKALIDQEVKNGIPSNRIILGGFSQGGALSLYTALTTQQKLAGVTALSCWLPLRASFPQGPIGGANRDISILQCHGDCDPLVPLMFGSLTVEKLKTLVNPANVTFKTYEGMMHSSCQQEMMDVKQFIDKLLPPID [LYPLA1] | 0.23 | 0.0704 | -0.796 | 54.6 | 56.2 | 0.619
5 | MVKLFIGNLPREATEQEIRSLFEQYGKVLECDIIKNYGFVHIEDKTAAEDAIRNLHHYKLHGVNINVEASKNKSKTSTKLHVGNISPTCTNKELRAKFEEYGPVIECDIVKDYAFVHMERAEDAVEAIRGLDNTEFQGKRMHVQLSTSRLRTAPGMGDQSGCYRCGKEGHWSKECPIDRSGRVADLTEQYNEQYGAVRTPYTMSYGDSLYYNNAYGALDAYYKRCRAARSYEAVAAAAASVYNYAEQTLSQLPQVQNTAMASHLTSTSLDPYDRHLLPTSGAAATAAAAAAAAAAVTAASTSYYGRDRSPLRRATAPVPTVGEGYGYGHESELSQASAAARNSLYDMARYEREQYADRARYSAF [RBM4] | -0.0121 | -0.245 | -0.114 | 49.6 | 48 | 0.281
